We go through nine molecules from patent US20230103704A1, “HUMAN ANTI-IN[…] FOR THE […] OF IN[…] ISSUES” (priority 2020, published 2023).

The format of the data set is physicochemical. To be noted: for MMAD / released dosage at the mouthpiece as share of the nominal value / released dosage: 0.1 mg/ml in physiological saline; for released dosage: at the mouthpiece; for time of aerosol release: corresponds to 30 strokes/breaths. The protocol:
Aviptadil can be obtained, e.g., from Bachem AG, Bubendorf, Switzerland, in GMP quality.
The experimental procedure was carried out pursuant to Ph. Eur. 2.9.44 (Preparations for Nebulisation: Characterisation). A cascade impactor (Next Generation Impactor (NGI), Copley Scientific Ltd., Nottingham, UK) was used to determine the respective percentage for each fraction of the nebulized particles.
The thus generated aerosol was delivered to the cascade impactor by means of a mouthpiece (SK-211, NEBU-TEC, Eisenfeld, Germany).
The nebulization chamber (yellow stamp, 250 μl liquid discharge) was filled. The puff profile configured at the breath simulator was chosen in such a way that a correct simulation of inhalation by means of the nebulizer was ensured. The corresponding time was recorded.
Single values obtained for each cascade were added. […] MMAD, FPF and FPM were calculated from the obtained values: […]

Regarding “Tyr-Arg-Gln-Ser-Met-Asn-Asn-Phe-Gln-Gly-Leu-Arg-Ser-Phe-Gly-Cys-Arg-Phe-Gly-Thr-Cys-Thr-Val-Gln-Lys-Leu-Ala-His-Gln-Ile-Tyr-Gln-Phe-Thr-Asp-Lys-Asp-Lys-Asp-Asn-Val-Ala-Pro-Arg-Ser-Lys-Ile-Ser-Pro-Gln-Gly-Tyr [adrenomedullin]”, the MMAD is 3.41 μm, the “released dosage at the mouthpiece as share of the nominal value” (“released dosage at the mouthpiece” for short) is reported as 53%, the released dosage is on record as 0.053 mg and the “time of aerosol release” value turned out to be 3 min.
On the same counts, the results for “His-Ser-Asp-Gly-Ile-Phe-Thr-Asp-Ser-Tyr-Ser-Arg-Tyr-Arg-Lys-Gln-Met-Ala-Val-Lys-Lys-Tyr-Leu-Ala-Ala-Val-Leu-Gly-Lys-Arg-Tyr-Lys-Gln-Arg-Val-Lys-Asn-Lys [PACAP-38]” are 3.25 μm, 58%, 0.058 mg and 3 min.
For “Gly-Leu-Ser-Lys-Gly-Cys-Phe-Gly-Leu-Lys-Leu-Asp-Arg-Ile-Gly-Ser-Met-Ser-Gly-Leu-Gly-Cys [C-type natriuretic peptide]”, in that order: 3.37 μm, 77%, 0.077 mg and 3 min.
For “relaxin-3: human relaxin isoform, heterodimer of 51 amino acids, subunit 1 SEQ ID NO: 12 and subunit 2 SEQ ID NO: 13”, in that order: 3.36 μm, 49%, 0.049 mg and 3 min.
With Colistin [reference compound], the MMAD is 3.61 μm, the “released dosage at the mouthpiece” value is 75%, the released dosage amounted to 0.075 mg and the “time of aerosol release” value was found to be 3 min.
As for “Ser-Pro-Lys-Met-Val-Gln-Gly-Ser-Gly-Cys-Phe-Gly-Arg-Lys-Met-Asp-Arg-Ile-Ser-Ser-Ser-Ser-Gly-Leu-Gly-Cys-Lys-Val-Leu-Arg-Arg-His [B-type natriuretic peptide]”, the MMAD is reported as 3.46 μm, the “released dosage at the mouthpiece” value is recorded as 69%, the released dosage stood at 0.069 mg and the “time of aerosol release” value is listed as 3 min.
On the same counts, the results for “Ac-Ser-Tyr-Ser-Met-Glu-His-Phe-Arg-Trp-Gly-Lys-Pro-Val-NH2 [α-melanocyte stimulating hormone]” are 3.11 μm, 45%, 0.045 mg and 3 min.

B1: dornase alfa: recombinant human deoxyribonuclease I, polypeptide produced in CHO cells, comparative example (protein, UniProt P24855 23-282, looked up)
Deoxyribonuclease-1: LKIAAFNIQTFGETKMSNATLVSYIVQILSRYDIALVQEVRDSHLTAVGKLLDNLNQDAPDTYHYVVSEPLGRNSYKERYLFVYRPDQVSAVDSYYYDDGCEPCGNDTFNREPAIVRFFSRFTEVREFAIVPLHAAPGDAVAEIDALYDVYLDVQEKWGLEDVMLMGDFNAGCSYVRPSQWSSIRLWTSPTFQWLIPDSADTTATPTHCAYDRIVVAGMLLRGAVVPDSALPFNFQAAYGLSDQLAQAISDHYPVEVMLK
As for B1, the MMAD is 3.72 μm, the “released dosage at the mouthpiece” value turned out to be 65%, the released dosage amounted to 0.065 mg and the “time of aerosol release” value was found to be 3 min.

B2: interferon gamma: human cytokine of 17 kD, 138 amino acids, SEQ ID NO: 14 (protein, listed as Homo sapiens)
chain: QDPYVKEAENLKKYFNAGHSDVADNGTLFLGILKNWKEESDRKIMQSQIVSFYFKLFKNFKDDQSIQKSVETIKEDMNVKFFNSNKKKRDDFEKLTNYSVTDLNVQRKAIHELIQVMAELSPAAKTGKRKRSQMLFRG
As to B2, the MMAD is given as 3.46 μm, the “released dosage at the mouthpiece” value is given as 95%, the released dosage was determined as 0.045 mg and the “time of aerosol release” value is given as 3 min.
